Assay [1] relates to hPASMCs. The assay is described as follows: TUNEL apoptosis assay in hPASMCs. Type of assay: cell-based, human. Conditions: H2O2 100 μM + rhNAMPT 20 μg/ml, 24 hrs. As to the method:
hPASMCs were cultured on a coverslip in a 6-well cell culture plate. H2O2 (100 μM, Sigma, Cat. #ab66110) was used as an apoptosis stimulus for hPASMCs.
When cell confluence reached 95%, cells were starved for 3 hrs and stimulated by H2O2, FK866 (10 μM), H2O2+rhNAMPT (20 μg/ml) or H2O2+rhNAMPT (20 μg/ml) with FK866 (10 μM) for 24 hrs. Cell apoptosis was examined using an in situ BrdU-Red DNA fragmentation (TUNEL) kit. The cells on the coverslips were examined using a Nikon Eclipse E800 fluorescence microscope, and the images were processed by MetaMorph software (Molecular Devices, Inc.). Approximately ten images were taken from each condition, and over 500 cells were counted according to DAPI staining.

A further assay relates to human lung SMC. In words: BrdU proliferation of human lung SMC exposed to recombinant NAMPT. Format: cell-based. Conditions: 1, 5, 20 μg/ml. As to the method: Cell proliferation was determined using either a 5-bromo-2′-deoxyuridine (BrdU) incorporation assay or cell counting. BrdU assays (QIA58, Calbiochem, San Diego, Calif.) were performed in a 96-well format according to manufacturer's instructions, using starting cell densities of 4000 cells/well. For cell counting, cells were trypsinized and resuspended after experimental procedures; densities were counted with a TC10™ automated cell counter (Bio-Rad). FBS or PDGF was used as positive controls.

In a further assay the test system is human lung SMCs. In words: Store-operated Ca2+ entry and STIM2/Orai2 expression in human lung SMCs. Format: cell-based. Conditions: 48 hr. As to the method:
Recombinant NAMPT protein (CY-E1251) was obtained from MBL Lifescience. Solubilized protein lysates isolated from lung tissues and cells were used to detect NAMPT, STIM2, ORAI2 and actin as previously described. Cells were lysed in a modified radioimmunoprecipitation assay (mRIPA) lysis buffer with a protease and phosphatase inhibitor cocktail (Sigma Aldrich, St. Louis, Mo.), and protein quantification and Western blot analysis were performed according to standard procedures.
Human Primary Pulmonary Artery Smooth Muscle Cells (hPASMCs) from control and PAH patients were obtained and isolated as previously described from Lonza (CC-2581 and CC-2530) were used for cell transfection and proliferation assays.
[Ca2+]cyt was measured in PASMC loaded with fura-2 (4 mM) in a Nikon digital fluorescent imaging system. Cells were loaded with 4 μM fura-2 acetoxymethyl ester (fura-2/AM) for 60 min at 25° C. and [Ca2+]cyt was measured using a ratiometric method at 32° C. Cyclepiazonic acid (CPA, a specific Ca2+-ATPase inhibitor) was used to induce store-operated calcium entry (SOCE).

Assay [2] has as its system hPASMCs. In words: Transwell migration and wound healing assays. Conditions: rhNAMPT 20 μg/ml. Format: cell-based, human. As to the method:
For quantitative data from transwell migration assays (ANOVA P<0.05). 50,000 cells were added into Falcon™ Cell Culture Inserts (Fisher, Cat. #08-771-12) with 8-μm pores in 1 ml of basal medium and 250 μl on the top of the transwell. Cells were then stimulated by vehicle, rhNAMPT (20 μg/ml) with or without FK866 (10 μM) for 48 hrs. Unmigrated cells were then scraped from the top of the filter and the migrated bottom layer of cells were stained by 1% aqueous Crystal Violet solution (Electron Microscopy Sciences, Cat. #RT 26088-10). The transwell bottom was gently separated by a blade and put on a glass slide for imaging.
The migrated cells were counted and quantified. Images were taken by an Olympus BX51Fluorescence Microscope and processed by DPController Software (Oylmpus IMS).
In wound healing assays, approximately 0.5 million human Primary Pulmonary Artery Smooth Muscle Cells (hPASMCs) were seeded to 6-well cell culture plates, a straight line was scratched using a 200-μl pipette tip after cells reached 100% confluence. Three dots were labelled beside each line. […]
Image J software was used to measure the wound line width for all the three spots labeled in each line. Wound closure %={[width (start point)-width (end point)]/width (start point)}×100% was calculated (ANOVA P<0.05).

The text below walks through data of patent US10975167B2, “Method to reduce pulmonary arterial hypertension by administering inhibitors of nicotinamide phosphoribotransferase” (Arizona Board of Regents on Behalf of the University of …, priority 2017, dated 2021).

B1: rNAMPT: Recombinant NAMPT protein (CY-E1251) from MBL (protein)
chain: MNPAAEAEFNILLATDSYKVTHYKQYPPNTSKVYSYFECREKKTENSKLRKVKYEETVFYGLQYILNKYLKGKVVTKEKIQEAKDVYKEHFQDDVFNEKGWNYILEKYDGHLPIEIKAVPEGFVIPRGNVLFTVENTDPECYWLTNWIETILVQSWYPITVATNSREQKKILAKYLLETSGNLDGLEYKLHDFGYRGVSSQETAGIGASAHLVNFKGTDTVAGLALIKKYYGTKDPVPGYSVPAAEHSTITAWGKDHEKDAFEHIVTQFSSVPVSVVSDSYDIYNACEKIWGEDLRHLIVSRSTQAPLIIRPDSGNPLDTVLKVLEILGKKFPVTENSKGYKLLPPYLRVIQGDGVDINTLQEIVEGMKQKMWSIENIAFGSGGGLLQKLTRDLLNCSFKCSYVVTNGLGINVFKDPVADPNKRSKKGRLSLHRTPAGNFVTLEEGKGDLEEYGQDLLHTVFKNGKVTKSYSFDEIRKNAQLNIELEAAHH
As to B1, the “hPASMC apoptosis (TUNEL positive cells)” value in the assay on hPASMCs [1] is reported as “inhibits”. Moreover, in the assay with human lung SMC, the “human lung SMC proliferation” value is “dose-dependently stimulating”. Further, the “cyclopiazonic acid (CPA)-mediated store-operated Ca2+ entry (SOCE)” value in the assay with human lung SMCs (20 μg/ml) was “augments”. Further, in the assay with human lung SMCs, the “expression of Orai2” value was “increases” and the “expression of STIM2” value was “increases”. For the same molecule, the “human PASMC migration” value with hPASMCs [2] is “promotes”.
